Measured values taken from US20240317847A1 (Bayer, published 2024).
Positions count from the first letter of the chain named. Like-named read-outs stand apart in the source and are kept apart here. Values belong to the binder of their own block, whether it stands above or below them.

How the values were obtained:
murine IL-11 [1] = biological target: T1, murine IL-11 (mouse, UniProt P47873 22-199); assay: SPR, antibody captured, IL-11 as analyte
T1 construct: bought from Invigate; also called mIL-11; mIL11
T1 sequence: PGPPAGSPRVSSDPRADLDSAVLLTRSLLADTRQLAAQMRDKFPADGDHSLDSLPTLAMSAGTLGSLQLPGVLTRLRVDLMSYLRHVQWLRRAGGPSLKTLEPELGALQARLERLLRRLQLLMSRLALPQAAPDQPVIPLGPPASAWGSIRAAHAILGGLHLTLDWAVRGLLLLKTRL
Experimental: (§1) Antibodies were captured via anti-mouse Fc IgGs (“Mouse antibody capture kit, Order No. BR100383, Cytiva) covalently amine coupled to a Series S CM5 sensor chip (Cytiva). The amine coupling was carried out according to the manufacturer's instructions using 1-ethyl-3-(3-dimethylaminopropyl) carbodiimide hydrochloride (EDC), N-hydroxysuccinimide (NHS) and ethanolamine HCl, pH 8.5 (“Amine Coupling Kit” BR-1000-50, Cytiva.). Human IL-11 (Invigate, e.g., lot #C121021-19), and murine IL-11 (Invigate, e.g., lot #C210819-09) were used as analytes. […] Based on that experiment an IL-11 concentration range was chosen to optimally determine kinetics and affinity of anti-IL-11 antibodies in multicycle kinetics mode. The sensor surface was regenerated with glycine pH 1.7 after each antigen injection. Obtained sensorgrams were double referenced (subtraction of reference flow cell signal and buffer injection) and were fitted to a 1:1 Langmuir binding model to derive kinetic data using the Biacore T200 Evaluation software or the Biacore Insight software.
(§2) For the 2nd round of germlining, single reversions were then combined on DNA level, expressed and purified as described in Example 15, and tested by SPR as described in Example 16.

human IL-11 [2] = biological target: T2, human IL-11 (human, UniProt P20809 22-199); assay: SPR, antibody captured, IL-11 as analyte
T2 construct: bought from Invigate; also called hIL-11; hIL11
T2 sequence: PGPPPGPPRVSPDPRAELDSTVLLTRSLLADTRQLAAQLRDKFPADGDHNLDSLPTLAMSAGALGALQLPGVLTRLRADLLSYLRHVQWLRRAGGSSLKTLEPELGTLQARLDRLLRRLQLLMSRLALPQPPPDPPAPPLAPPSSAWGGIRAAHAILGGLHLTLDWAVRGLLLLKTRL
Experimental: as §1, §2

murine IL-11 [3] = biological target: T1, murine IL-11; assay: cell-based or functional assay
human IL-11 [4] = biological target: T2, human IL-11; assay: cell-based or functional assay
murine IL-11 [5] = biological target: T3, murine IL-11 (mouse, UniProt P47873 22-199); assay: SPR, antibody captured, IL-11 as analyte
T3 construct: Invigate, e.g. lot #C210819-09; biotinylated where coated in the ELISA; also called mIL-11; mIL11
T3 sequence: T1 sequence

rat IL-11 = biological target: T4, rat IL-11 (rat, UniProt Q99MF5 22-199); assay: SPR, antibody captured, IL-11 as analyte
T4 construct: Invigate, e.g. lot #C301019-19; also called rIL11
T4 sequence: T1 sequence with S50N, L84F, G94A, V137A, I138V

cynomolgus IL-11 = biological target: T5, cynomolgus IL-11 (cynomolgus, UniProt P20808 22-199); assay: SPR, antibody captured, IL-11 as analyte
T5 construct: Invigate, lot #C290621-19; also called cIL11; cynoL-11
T5 sequence: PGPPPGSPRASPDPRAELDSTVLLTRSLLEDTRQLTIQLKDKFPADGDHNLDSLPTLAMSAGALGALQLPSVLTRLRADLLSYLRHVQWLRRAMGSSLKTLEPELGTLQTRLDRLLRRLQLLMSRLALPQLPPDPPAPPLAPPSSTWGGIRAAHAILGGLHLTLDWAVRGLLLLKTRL

human IL-11 [6] = biological target: T6, human IL-11 (human, UniProt P20809 22-199); assay: SPR, antibody captured, IL-11 as analyte
T6 construct: Invigate, e.g. lot #C121021-19; biotinylated where coated in the ELISA; also called hIL-11; hIL11
T6 sequence: T2 sequence

murine IL-11 [7] = biological target: T3, murine IL-11; assay: cell-based or functional assay; remark: listed apart in the source
human IL-11 [8] = biological target: T6, human IL-11; assay: cell-based or functional assay; remark: listed apart in the source

B1: TPP-21150 (antibody, V domains shown)
VH: EVQLLESGGGLVQPGGSLRLSCAASGFTFSSYGMHWVRQAPGKGLEWVSVISYDGSYKYYADSVKGRFTISRDNSKNTLYLQMNSLRAEDTAVYYCAAGVPDYWGQGTLVTVSS
VL: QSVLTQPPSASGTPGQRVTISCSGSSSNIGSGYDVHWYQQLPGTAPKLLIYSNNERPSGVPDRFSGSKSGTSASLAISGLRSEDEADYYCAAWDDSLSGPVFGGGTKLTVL
Kd (murine IL-11 [1]): 1.4 nM | Kd (human IL-11 [2]): 5.6 nM | Efficacy (%), RGA (murine IL-11 [3]): 92.2% | IC50, RGA (murine IL-11 [3]): 1.6 nM | Efficacy (%), RGA (human IL-11 [4]): 46.9% | IC50, RGA (human IL-11 [4]): 12 nM

B2: TPP-27159 (antibody, human IgG1, lambda, V domains shown)
VH: B1 VH with S49A
VL: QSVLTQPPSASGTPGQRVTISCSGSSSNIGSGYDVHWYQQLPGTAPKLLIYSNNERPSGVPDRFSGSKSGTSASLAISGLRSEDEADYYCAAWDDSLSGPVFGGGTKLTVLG
notes: hIgG1, Lambda
Kd (murine IL-11 [1]): 1.1 nM | Kd (human IL-11 [2]): 5.4 nM | Efficacy (%), RGA (murine IL-11 [3]): 82.4% | IC50, RGA (murine IL-11 [3]): 1.9 nM | Efficacy (%), RGA (human IL-11 [4]): 43.2% | IC50, RGA (human IL-11 [4]): 19 nM

B4: TPP-27158 (antibody, V domains shown)
VH: B1 VH with S49A
VL: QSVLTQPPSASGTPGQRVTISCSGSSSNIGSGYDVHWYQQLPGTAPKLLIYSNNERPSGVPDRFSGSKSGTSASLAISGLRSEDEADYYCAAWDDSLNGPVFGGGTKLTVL
Kd (murine IL-11 [1]): 0.4 nM | Kd (human IL-11 [2]): 5.9 nM | Efficacy (%), RGA (murine IL-11 [3]): 89.9% | IC50, RGA (murine IL-11 [3]): 1.4 nM | Efficacy (%), RGA (human IL-11 [4]): 55.8% | IC50, RGA (human IL-11 [4]): 20 nM

B5: TPP-27157 (antibody, V domains shown)
VH: B1 VH with S49A
VL: QSVLTQPPSASGTPGQRVTISCTGSSSNIGAGYDVHWYQQLPGTAPKLLIYSNNERPSGVPDRFSGSKSGTSASLAISGLRSEDEADYYCAAWDDSLSGPVFGGGTKLTVL
Kd (murine IL-11 [1]): 1.1 nM | Kd (human IL-11 [2]): 5.1 nM | Efficacy (%), RGA (murine IL-11 [3]): 86.4% | IC50, RGA (murine IL-11 [3]): 1.4 nM | Efficacy (%), RGA (human IL-11 [4]): 51.2% | IC50, RGA (human IL-11 [4]): 13 nM

B6: TPP-21157 (antibody, V domains shown)
VH: B1 VH
VL: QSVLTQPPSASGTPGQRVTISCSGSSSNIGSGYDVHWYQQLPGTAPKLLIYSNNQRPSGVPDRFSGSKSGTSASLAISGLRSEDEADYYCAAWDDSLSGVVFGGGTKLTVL
Kd (murine IL-11 [1]): 73 nM | Kd (human IL-11 [2]): 13 nM | Efficacy (%), RGA (murine IL-11 [3]): 59.2% | IC50, RGA (murine IL-11 [3]): 44 nM | Efficacy (%), RGA (human IL-11 [4]): 13.4%

B12: TPP-27156 (antibody, V domains shown)
VH: B1 VH with S49A
VL: B5 VL with S98N
Kd (murine IL-11 [1]): 0.45 nM | Kd (human IL-11 [2]): 6.6 nM | Efficacy (%), RGA (murine IL-11 [3]): 90.6% | IC50, RGA (murine IL-11 [3]): 1.2 nM | Efficacy (%), RGA (human IL-11 [4]): 50.4% | IC50, RGA (human IL-11 [4]): 15 nM

B13: TPP-21153 (antibody, V domains shown)
VH: B1 VH
VL: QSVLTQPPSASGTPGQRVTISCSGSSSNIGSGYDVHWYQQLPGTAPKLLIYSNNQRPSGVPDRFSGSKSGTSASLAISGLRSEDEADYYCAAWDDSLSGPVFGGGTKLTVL
Kd (murine IL-11 [1]): 3.6 nM | Kd (human IL-11 [2]): 10 nM | Efficacy (%), RGA (murine IL-11 [3]): 81.2% | IC50, RGA (murine IL-11 [3]): 3.4 nM | Efficacy (%), RGA (human IL-11 [4]): 34% | IC50, RGA (human IL-11 [4]): 26 nM

B14: TPP-27155 (antibody, V domains shown)
VH: B1 VH
VL: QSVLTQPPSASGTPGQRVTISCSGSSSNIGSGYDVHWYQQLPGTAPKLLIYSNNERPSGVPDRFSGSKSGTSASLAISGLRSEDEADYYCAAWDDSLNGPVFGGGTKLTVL
Kd (murine IL-11 [1]): 0.65 nM | Kd (human IL-11 [2]): 5.8 nM | Efficacy (%), RGA (murine IL-11 [3]): 94.3% | IC50, RGA (murine IL-11 [3]): 1.1 nM | Efficacy (%), RGA (human IL-11 [4]): 56.5% | IC50, RGA (human IL-11 [4]): 20 nM

B16: TPP-21158 (antibody, V domains shown)
VH: B1 VH with S49A, A98R
VL: B5 VL with S98N
Kd (murine IL-11 [1]): 13 nM | Kd (human IL-11 [2]): 47 nM | Efficacy (%), RGA (murine IL-11 [3]): 73.2% | IC50, RGA (murine IL-11 [3]): 2.4 nM | Efficacy (%), RGA (human IL-11 [4]): 19.4%

B17: TPP-27160 (antibody, V domains shown)
VH: B1 VH with S49A
VL: B5 VL with T23S, A31S, S52D
Kd (murine IL-11 [1]): 56 nM | Kd (human IL-11 [2]): 180 nM | Efficacy (%), RGA (murine IL-11 [3]): 63.8% | IC50, RGA (murine IL-11 [3]): 10 nM | Efficacy (%), RGA (human IL-11 [4]): -2.8%

B18: TPP-27154 (antibody, V domains shown)
VH: B1 VH
VL: B5 VL
Kd (murine IL-11 [1]): 1.3 nM | Kd (human IL-11 [2]): 5.4 nM | Efficacy (%), RGA (murine IL-11 [3]): 92.9% | IC50, RGA (murine IL-11 [3]): 1.8 nM | Efficacy (%), RGA (human IL-11 [4]): 58.7% | IC50, RGA (human IL-11 [4]): 24 nM

The next lines start with the values.

Kd (murine IL-11 [5]): 0.96 nM | Kd (rat IL-11): 0.75 nM | Kd (cynomolgus IL-11): 0.35 nM | Kd (human IL-11 [6]): 0.5 nM | RGA Efficacy (%) (murine IL-11 [7]): 87.3% | RGA Efficacy (%) (human IL-11 [8]): 59.6% | RGA IC50 (human IL-11 [8]): 0.46 nM
B3: TPP-29400 (antibody, human IgG1, V domains shown)
VH: B1 VH with M34G, S49A, V50L
VL: B5 VL with T23S, A31S, G32D, D95F

Kd (murine IL-11 [5]): 0.11 nM | Kd (rat IL-11): 0.058 nM | Kd (cynomolgus IL-11): 0.23 nM | Kd (human IL-11 [6]): 0.69 nM | RGA Efficacy (%) (murine IL-11 [7]): 96.9% | RGA IC50 (murine IL-11 [7]): 0.15 nM | RGA Efficacy (%) (human IL-11 [8]): 83.3% | RGA IC50 (human IL-11 [8]): 1.3 nM
B7: TPP-29401 (antibody, human IgG1, V domains shown)
VH: B1 VH with M34G, S49A
VL: B5 VL with T23S, A31S, G32Y, N54E

Kd (murine IL-11 [5]): 0.091 nM | Kd (rat IL-11): 0.067 nM | Kd (cynomolgus IL-11): 0.14 nM | Kd (human IL-11 [6]): 0.2 nM | RGA Efficacy (%) (murine IL-11 [7]): 91.8% | RGA IC50 (murine IL-11 [7]): 0.19 nM | RGA Efficacy (%) (human IL-11 [8]): 71.8% | RGA IC50 (human IL-11 [8]): 0.72 nM
B8: TPP-29404 (antibody, human IgG1, V domains shown)
VH: B1 VH with M34G, S49A, V50L
VL: B5 VL with T23S, A31S, G32Y, D95S

Kd (murine IL-11 [5]): 0.18 nM | Kd (rat IL-11): 0.11 nM | Kd (cynomolgus IL-11): 0.26 nM | Kd (human IL-11 [6]): 0.77 nM | RGA Efficacy (%) (murine IL-11 [7]): 94.3% | RGA IC50 (murine IL-11 [7]): 0.27 nM | RGA Efficacy (%) (human IL-11 [8]): 82.4% | RGA IC50 (human IL-11 [8]): 1.7 nM
B9: TPP-29403 (antibody, human IgG1, V domains shown)
VH: B1 VH with M34G, S49A, V50L
VL: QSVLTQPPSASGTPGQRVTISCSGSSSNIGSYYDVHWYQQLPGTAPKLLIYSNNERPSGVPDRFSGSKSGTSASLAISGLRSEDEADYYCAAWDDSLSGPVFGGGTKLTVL

Kd (murine IL-11 [1]): 28 nM | Kd (human IL-11 [2]): 12 nM | Efficacy (%), RGA (murine IL-11 [3]): 52.3% | IC50, RGA (murine IL-11 [3]): 52 nM | Efficacy (%), RGA (human IL-11 [4]): 2.9%
B10: TPP-27163 (antibody, V domains shown)
VH: B1 VH with S49A
VL: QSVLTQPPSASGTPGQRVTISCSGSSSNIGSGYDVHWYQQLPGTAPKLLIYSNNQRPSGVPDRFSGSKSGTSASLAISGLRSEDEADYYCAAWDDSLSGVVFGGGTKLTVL

Kd (murine IL-11 [1]): 3.2 nM | Kd (human IL-11 [2]): 7.4 nM | Efficacy (%), RGA (murine IL-11 [3]): 77.6% | IC50, RGA (murine IL-11 [3]): 3.3 nM | Efficacy (%), RGA (human IL-11 [4]): 36% | IC50, RGA (human IL-11 [4]): 91 nM
B11: TPP-27162 (antibody, V domains shown)
VH: B1 VH with S49A
VL: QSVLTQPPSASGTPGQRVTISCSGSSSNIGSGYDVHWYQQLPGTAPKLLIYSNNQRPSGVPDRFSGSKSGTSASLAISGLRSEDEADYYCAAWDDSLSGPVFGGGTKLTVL

Kd (murine IL-11 [5]): 0.045 nM | Kd (rat IL-11): 0.018 nM | Kd (cynomolgus IL-11): 0.32 nM | Kd (human IL-11 [6]): 0.19 nM | RGA Efficacy (%) (murine IL-11 [7]): 95.5% | RGA IC50 (murine IL-11 [7]): 0.19 nM | RGA Efficacy (%) (human IL-11 [8]): 80.7% | RGA IC50 (human IL-11 [8]): 0.53 nM
B15: TPP-29402 (antibody, human IgG1, V domains shown)
VH: B1 VH with M34G, S49A, V50L
VL: B5 VL with T23S, A31S, Y33L, N54E, D95S, S98Y
